# Assay: yeast display, Sf9 membrane polyspecificity reagent, FACS + sequencing; frameworks hold sequencing errors
# In short: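 Nanobodies came from a synthetic yeast display library in Saccharomyces cerevisiae BJ5465, induced with galactose for 36–48 hours and stained for 1 hour at 4 °C with 10% biotinylated, detergent-solubilized Sf9 membrane reagent. Cells were enriched on streptavidin microbeads and then FACS-sorted, with low and high (top ~1%) gates set on anti-HA fluorescence for expression and streptavidin fluorescence for reagent binding. Each polyreactivity label reflects the gate a clone came from. Genes were amplified by colony PCR, sequenced by MiSeq 2 × 250 and filtered by CDR length.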
row,Sequence,polyreactivity (PSR sort gate)
1,QVQLVESGGGLVQAGGSLRLSCAASGLIFRAYAMGWYRQAPGKERELVAAITRSGGRTYYADSVKGRFTISRDNAKNTVYLQMNSLTPEDTAVYYCAAEYGNTYSSYTYDYWGQGTQVTVSS,high polyreactivity
2,QVQLVESGGGLVQAGGSLRLSCAASGLIFRAYAMGWYRQAPGKETELVAAITWNGGSTNYADSVKGRFTISRDNAKNTVYLQMHSLKPEDTAVYYCAAGSSRVFRKAGITRPSGLYYYWGQGTQVTVSS,high polyreactivity
3,QVQLVESGGGLVQAGGSLRLSCAASGLIFRAYGMGWYIQAPGKERELLAAITWNGGSTNYADSVKGRFTISRDNAKNTVYLQMNSLKPEDTAVYYCAARLAGRGSSSSRVVRTGGYWGQGTQVTVSS,high polyreactivity
4,QVQLVESGGGLVQAGGSLRLSCAASGLIFRDNTMGWYRQAPGKERELVAAINSGGGTSYADSVKGRFTISRDNAKNTVYLQMNSLKPEDTAVYYCAAAWWPYRYGTYYSQYDYWGQGTQVTVSS,low polyreactivity
5,QVQLVESGGGLVQAGGSLRLSCAASGLIFRLYAMGWYRQAPGKERELVAAISGGGGSTYYADSVKGRFTISRDNAKNTVYLQMNSLKPEDTAVYYCAATYSRGYWWSEYDYWGQGTQVTVSS,low polyreactivity
6,QVQLVESGGGLVQAGGSLRLSCAASGLIFRLYAMGWYRQAPGKERELVAAISVSGAITYYADSVKGRFTISRDNAKNTVYLLMNSLKPEDTAVYYCNAQAVFRRDGYVYWDVDYWGQGTQVTVSS,low polyreactivity
7,QVQLVESGGGLVQAGGSLRLSCAASGLIFRPYAMGWYRQAPGKERELVAGINSGGNTDYADTVKGRFTISRDNAKNTVYLQMNSLKPEDTAVYYCNREYQVTIYDYWGQGSQVTVSS,low polyreactivity
8,QVQLVESGGGLVQAGGSLRLSCAASGLIFRRNAMGWYRQAPGKERELVAAISRSSGSTYYADSVKGRFTISRDNAKNTVYLQMNSLKPEDTAVYYCAVHVWGTYGSWEYYYWGQGTQVTVSS,high polyreactivity
9,QVQLVESGGGLVQAGGSLRLSCAASGLIFRSYAMGWYRQAPGKERELVARISIRGGSTYYADSVKGRFTISRDNAKYTVYLQMNSLKPEDTAVYYCGAVGYFGGFRYDYWGQGTQVTVSS,high polyreactivity
10,QVQLVESGGGLVQAGGSLRLSCAASGLIFRTYTMGWYRQAPGKERELVAAISASGGRTYYADSVKGRFTISRDTAKNTVYLQMNRLKPEDTAVNYFNARVNYKGYDSWGQGTQVTVSS,high polyreactivity
11,QVQLVESGGGLVQAGGSLRLSCAASGLIFRTYTMGWYRQAPGKERELVATITRRGGTTYYADSVKGRFTISRDNAKNTVYLQMKSLKPEDTAVYYCAKSPYYTWKYDYWGQGTQVTVSS,high polyreactivity
12,QVQLVESGGGLVQAGGSLRLSCAASGLIFRYYAMGWYRQAPGKERELVAAISSSGTRTYYADSVKGRFTISRDNAKNTVYLQMNSLKPEDTSVYYCATENQNPTGGYWGQGTQVTVSS,high polyreactivity
13,QVQLVESGGGLVQAGGSLRLSCAASGLIFSGSAMGWYRQAPGKERELVAAITWSGGSTYYADSVKGRFTISRDNAKNSVYLQMNSQKPEDTAVYYCNAKFYQISRYGYWGQGTQVTVSS,high polyreactivity
14,QVQLVESGGGLVQAGGSLRLSCAASGLIFSLNAMGWYRHATGKERELVAAISSDDSTYYADSVKGRFTISRDNAKNNVYLQMNSLTPEDTAVYYCAAVQLVPGYVDSNDYYWGQGTQVTVSS,low polyreactivity
15,QVQLVESGGGLVQAGGSLRLSCAASGLIFSRYAMGWYRQAPGKEREFVAAINWNGGRTYYADSVKGRFTISRDNAKNTVYLQMNSLKPEDTAVYYCAATWIDYYVIYAYDYWGQGTQVTVSS,high polyreactivity
16,QVQLVESGGGLVQAGGSLRLSCAASGLIFSRYAMGWYRQGPGKERELVAASSGGGGSTYYADSVKGRFTISRDNAKNTVYLQMNSLKPEDTAVYYSARKYTRKIPASDYWGQGTQVTVSS,high polyreactivity

# Reference: the nanobody polyreactivity screen of Harvey et al. (2022)
